The nature of series [1]: Variation in body weight as an indication of toxicity, Colon 26 tumor-bearing mice. The class given is in vivo, mouse. Here is the method:
Mouse colon cancer Colon 26 tumor under successive cultivation under mouse skin was cut into blocks of approximately 2 mm square, and transplanted to under mouse skin using a trochar. […] As an indication of toxicity, variation in body weight was also measured (Table 2).

Series [2] concerns Mouse colon cancer Colon 26 tumor. The series is described as follows: Antitumor action, relative tumor volume after single intravenous administration. The format is in vivo. Particulars: with smaller administration amount; single i.v. administration. The method, then:
As an indication of toxicity, variation in body weight was also measured (Table 2).

As to “condensate of a block copolymer of mono-methoxypolyethylene glycol having a molecular weight of approximately 12000 and polyglutamic acid having a polymerization number of approximately 7, with 7-ethyl-10-hydroxycamptothecin [Compound 2]”, the “variation in body weight” value was 1.0 in series [1] (dose 90.0 mg/kg i.v. once, day 0 after administration); 0.96 in series [1] (dose 90.0 mg/kg i.v. once, day 2 after administration); 1.00 in series [1] (dose 90.0 mg/kg i.v. once, day 5 after administration); 0.90 in series [1] (dose 90.0 mg/kg i.v. once, day 12 after administration); 0.83 in series [1] (dose 90.0 mg/kg i.v. once, day 14 after administration); 1.0 in series [1] (dose 180.0 mg/kg i.v. once, day 0 after administration). For the same substance, the “variation in body weight” value in series [1] (dose 180.0 mg/kg i.v. once, day 2 after administration) is listed as 0.91; in series [1] (dose 180.0 mg/kg i.v. once, day 5 after administration), 0.99; in series [1] (dose 180.0 mg/kg i.v. once, day 7 after administration), 0.99; in series [1] (dose 180.0 mg/kg i.v. once, day 9 after administration), 1.04; in series [1] (dose 180.0 mg/kg i.v. once, day 12 after administration), 0.94; in series [1] (dose 180.0 mg/kg i.v. once, day 14 after administration), 0.94.
For “condensate of a block copolymer of methoxypolyethylene glycol having a molecular weight of approximately 12000 and polyglutamic acid having a polymerization number of approximately 28, with 7-ethyl-10-hydroxycamptothecin [Compound 1]”, the “antitumor effect as compared with compound 2 (smaller drug content)” value in series [2] was “higher antitumor effect”. The “variation in body weight” value in series [1] (dose 22.5 mg/kg i.v. once, day 0 after administration) is 1.0; in series [1] (dose 22.5 mg/kg i.v. once, day 2 after administration), 0.98; in series [1] (dose 22.5 mg/kg i.v. once, day 5 after administration) it was 1.02; in series [1] (dose 22.5 mg/kg i.v. once, day 9 after administration) it was 1.06; in series [1] (dose 22.5 mg/kg i.v. once, day 12 after administration), 1.03; in series [1] (dose 22.5 mg/kg i.v. once, day 14 after administration), 0.96. Also, the “variation in body weight” value in series [1] (dose 45.0 mg/kg i.v. once, day 0 after administration) was 1.0; in series [1] (dose 45.0 mg/kg i.v. once, day 2 after administration), 0.94; in series [1] (dose 45.0 mg/kg i.v. once, day 5 after administration) it was 0.91; in series [1] (dose 45.0 mg/kg i.v. once, day 7 after administration), 0.97; in series [1] (dose 45.0 mg/kg i.v. once, day 12 after administration), 1.03; in series [1] (dose 45.0 mg/kg i.v. once, day 14 after administration), 1.04.

(Values after US20060067910A1, “High-molecular weight derivatives of camptothecins” (priority 2002, published 2006).)
